Patent US20260185108A1 (Johns Hopkins, published 2026)

Experiments:
[1] = molecular target: T1, CD63/Y235A (on F/YA24 cells) (UniProt P08962 2-238, limits assumed); experiment: flow cytometry of CP05-Cy5 on F/YA24 cells against 293F and 293F/CD63-/- cells
T1 construct: whole, on cells; F/YA24 cells also carry the endogenous CD63 of 293F cells; also called mutant form of CD63
T1 sequence (looked up): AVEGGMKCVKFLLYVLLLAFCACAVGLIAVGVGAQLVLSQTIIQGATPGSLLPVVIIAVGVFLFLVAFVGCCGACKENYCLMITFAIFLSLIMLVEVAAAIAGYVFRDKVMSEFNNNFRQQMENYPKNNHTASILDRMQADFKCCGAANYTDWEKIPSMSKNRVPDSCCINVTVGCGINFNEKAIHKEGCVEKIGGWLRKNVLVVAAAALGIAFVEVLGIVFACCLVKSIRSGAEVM
Method: (§1) For measurement of surface CD63 abundance and Cy5-CP05 peptide binding, cells were washed in HBSS, released from tissue culture plates using trypsin/EDTA solution, and resuspended at a concentration of 1×10^7 cells per ml in HBSS. Cell suspensions were maintained on ice, diluted to a concentration of 1×10^6 cells per ml, incubated with either (i) fluorescently labeled anti-CD63 antibody (catalog no.: 353006; BioLegend) or (ii) CY5-labeled CP05 peptide (NH2-[…](K/Cy5)-amide; Vivitide; molecular weight=[…]). Following the binding reaction, cells were washed five times in PBS and then examined by flow cytometry on a Beckman CytoFlex flow cytometer set at the appropriate excitation and emission wavelengths. The relative brightness was determined for thousands of individual cells in each cell line using Beckman CytExpert software (version 2.3.1.22) to calculate average brightness and CV as well as to generate scatter plots and histograms.
(§2) To determine whether these mutations led to a drop in the cell surface expression of CD63, cell lines were interrogated: the 293F/CD63^{-/-} cell line, the parental 293F cell line, and the F/YA24 cell line by flow cytometry, using a commercially available fluorescently tagged monoclonal anti-CD63 antibody. […]

[2] = molecular target: T2, CD63 (endogenous, on WT 293F cells) (UniProt P08962 2-238, limits assumed); experiment: flow cytometry of CP05-Cy5 on WT 293F cells against 293F/CD63-/- cells
T2 construct: whole, on cells; Compared with the 293F/CD63-/- knockout line as the negative control; also called WT CD63
T2 sequence (looked up): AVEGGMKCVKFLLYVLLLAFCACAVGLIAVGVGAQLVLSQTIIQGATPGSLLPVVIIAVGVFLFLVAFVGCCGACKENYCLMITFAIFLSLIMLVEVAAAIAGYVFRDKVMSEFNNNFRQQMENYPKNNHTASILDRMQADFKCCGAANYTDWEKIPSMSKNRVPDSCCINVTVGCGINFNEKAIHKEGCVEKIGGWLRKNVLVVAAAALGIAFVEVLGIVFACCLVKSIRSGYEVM
Method: as §1, §2

B1: Cy5-labeled CP05 peptide (NH2-CRHSQMTVTSRL(K/Cy5)-amide) (peptide)
peptide: H-CRHSQMTVTSRLK(Cy5)-NH2
notes: Synthetic peptide (Vivitide); the labeled peptide used in the assay has one more Lys(Cy5) and a C-terminal amide; also called CP05-Cy5; Cy5-CP05 peptide
binding result [1]: no binding (tested: 0.34 µM and 3.4 µM CP05-Cy5) | binding result [2]: no binding (tested: 0.34 µM and 3.4 µM CP05-Cy5)
